The data set is described as follows: soluble on expression in E. coli; label from the status in PepcDB or PDB records.
Consider “MFISDKSRPTDFYKDDHHNSSTTSTTRDMMIDVLTTTNESVDLQSHHHHNHHNHHLHQSQPQQQILLGESSGEDHEVKAPKKRAETWVQDETRSLIMFRRGMDGLFNTSKSNKHLWEQISSKMREKGFDRSPTMCTDKWRNLLKEFKKAKHHDRGNGSAKMSYYKEIEDILRERSKKVTPPQYNKSPNTPPTSAKVDSFMQFTDKGFDDTSISFGSVEANGRPALNLERRLDHDGHPLAITTAVDAVAANGVTPWNWRETPGNGDDSHGQPFGGRVITVKFGDYTRRIGVDGSAEAIKEVIRSAFGLRTRRAFWLEDEDQIIRCLDRDMPLGNYLLRLDDVCKTHLAGLAIRVCHYDESNQLPVHSEEKIFYTEEDYREFLARQGWSSLQVDGFRNIENMDDLQPGAVYRGVR”, for which the “soluble on expression in E. coli” value is recorded as “soluble”.
On to “MTMEALLTPNNNNVPTSPVQTTYTSTQRYCSAPNVDIGESKTNLIINYLPQGMTQEEVRSLFTSIGEIESCKLVRDKVTGQSLGYGFVNYVREEDALRAVSSFNGLRLQNKTIKVSYARPSNDQIKGSNLYVSGIPKSMTLHELESIFRPFGQIITSRILSDNVTGLSKGVGFVRFDKKDEADVAIKTLNGSIPSGCSEQITVKFANNPASNNPKGLLSDLEAVQQAATTLVPLSTILGAPTLRATAGGIGPMHHAPITSKYRYSPMGAITAVSQPTATLPADYLTTSALLQMSQLNALAGLNPFATATAVPDFTASLIAHQQQQHAVAQQHAAQTASPPATNGQVAGLAAHAQLSALSASVAATLPPSDTAGYCLFVYNLSSDTDDTLLWQLFSQFGAIVNVKILRDLTQQCKGYAFVSMSNYTEAYNAMLSLNGTNLAGKTLQVVFKSSTPYRA”, for which the “soluble on expression in E. coli” value is “not soluble”.
Turning to “MSLVLYRKLKKAKSLEEIKNTFKNLTKSISSLVMRGMHFYDLSNILTEIYDYLVVKVIEMEKERFEREWGKLPSFAWVHMGSSARKEQVIATDQDNAIVHEGDGEGLSQFAESVNNALDYVGIPKCRGGYMAMNWCKSVEEWKSVFSEWFIKLTPDNLRFLSVFLDLRVIYGDEKLCKELIEHIKREHTSQSLRYLAYDATIAEPPLGLFGLRMKKEIDLKMNGIYPIVNGVRVLALEHGLIEVTNTRERLEELKEAHVMDADLAESLKETYEFLQDLRLRLQAKEVVEGKKADNVIKVSEIDRIEAFVLKEGFKVIKKFQNFLKGHYSIERGLEGHHHHHH”, the “soluble on expression in E. coli” value is given as “soluble”.
Consider “MGSDKIHHHHHHMSRVGIPRSLFYYYYYPLWKSFFSDLGVEILTSAPSNRHTVERGIELAVDETCFPIKVYLGHVAELCREELDYLFIPRLVSVEARSYICPKFMGLPDIVRALIKETPPLIDITVDLSRDEKCFKKDIIRVGRLFTRQASRIQLAYQHGCEELRLCRSLASQGFTMEEAIKIWEGGAMEAEPETDLNIGVLGHGYSLYDERISMNLVKRLRAMNCKVLLPEHLGSEVVEAEAATVPKRVFWTLGRKMLGSALHLSQREDVDGIIYLACFGCGPDSLIGEIIERKVRDCKPFILLTVDEHSGEAGIITRLEAFCDMLRRRRNCGSESKLSPYGVSLHSFENTV”, for which the “soluble on expression in E. coli” value is given as “not soluble”.
With “MTMMTATQALSVNPATGQTLAAMPWANAQEIEHALSLAASGFKKWKMTSVAQRAQTLRDIGQALRAHAEEMAQCITREMGKPIKQARAEVTKSAALCDWYAEHGPAMLNPEPTLVENQQAVIEYRPLGVILAIMPWNFPLWQVLRGAVPILLAGNSYLLKHAPNVTGCAQMIARILAEAGTPAGVYGWVNANNEGVSQMINDPRIAAVTVTGSVRAGAAIGAQAGAALKKCVLELGGSDPFIVLNDADLELAVKAAVAGRYQNTGQVCAAAKRFIVEEGIAQAFTDRFVAAAAALKMGDPLVEENDLGPMARFDLRDELHQQVQASVAEGARLLLGGEKIAGEGNYYAATVLADVTPDMTAFRQELFGPVAAITVAKDAAHALALANDSEFGLSATIFTADDTLAAEMAARLECGGVFINGYSASDARVAFGGVKKSGFGRELSHFGLHEFCNVQTVWKNRV”, the “soluble on expression in E. coli” value was “soluble”.
“MGSMAHSDGIFKKEQAMCLEKIQRANELMGFNDSSPGCPGMWDNITCWKPAHVGEMVLVSCPELFRIFNPDQDMGVVSRNCTEDGWSEPFPHYFDACGFDEYESET”: the “soluble on expression in E. coli” value is “soluble”.
For “MEVPVHPLSQDPTAAWREISKTQRVIKVTMKPPTTTVAPNKARVVCMSDTHSLTPYIKFDIPDGDIFIHAGDFTKCGQLEEVEEFNTWIGALPHRHKIVIAGNHELSFDRTFTHPFQKSKSHASSSKHTGMSILDDLPTLGNAKENLESAVQTQNVRDVLTNCRYLEDELLEIWGIQIYGSPWQPEFCRWAFNVPRGTACLDKWNQIPEGIDILVTHTPPVGHGDLCCSGVRAGCVELLSTVQQRVRPKYHVFGHVHEGYGITSDGRIIFVNASTCDINYLPNNAPIVFDVTLPPGFRKDLEHHHHHH”, the “soluble on expression in E. coli” value is “soluble”.
Turning to “MTYVDGFVLPVPEGKIDAYRQMAESAGKIWMEHGALQYKECVLEDAKPEMPEDAPETCKITPFGKLAGTKDGETVIFAFIVYKSREHRDEVNKKVMADPRMQEACDENNMPFDPSRMAYGGFKALVDL”, the “soluble on expression in E. coli” value is “not soluble”.
Take “AIASSAPAPGPAPASLTLWDEEDFQGRRCRLLSDCANVCERGGLPRVRSVKVENGVWVAFEYPDFQGQQFILEKGDYPRWSAWSGSSSHNSNQLLSFRPVLCANHNDSRVTLFEGDNFQGCKFDLVDDYPSLPSMGWASKDVGSLKVSSGAWVAYQYPGYRGYQYVLERDRHSGEFCTYGELGTQAHTGQLQSIRRVQH”: the “soluble on expression in E. coli” value was “soluble”.
On to “GPLGSEQIGKLRSELEMVSGNVRVMSEMLTELVPTQAEPADLELLQELNRTCRAMQQRVLELIPQIANEQLTEELLIVNDNLNNVFLRHERFERFRTGQTTKA”, for which the “soluble on expression in E. coli” value is given as “soluble”.
As for “TVPITSAKAAELPPGNYRLVVFELENFQGRRAEFSGECSNLADRGFDRVRSIIVSAGPWVAFEQSNFRGEMFILEKGEYPRWNTWSSSYRSDRLMSFRPIKMDAQEHKISLFEGANFKGNTIEIQGDDAPSLWVYGFSDRVGSVKVSSGTWVGYQYPGYRGYQYLLEPGDFRHWNEWGAFQPQMQSLRRLRDKQWHLEGSFPVLATEPPK”, the “soluble on expression in E. coli” value is listed as “soluble”.
For “MSLMSNDRKVTEIENSPVTEVRPEEHAWYPDDSALAAPPAATPAAISDQLPSDRYLNRELSWLDFNARVLALAADKSMPLLERAKFLAIFASNLDEFYMVRVAGLKRRDEMGLSVRSADGLTPREQLGRIGEQTQQLASRHARVFLDSVLPALGEEGIYIVTWADLDQAERDRLSTYFNEQVFPVLTPLAVDPAHPFPFVSGLSLNLAVTVRQPEDGTQHFARVKVPDNVDRFVELAAREASEEAAGTEGRTALRFLPMEELIAAFLPVLFPGMEIVEHHAFRITRNADFEVEEDRDEDLLQALERELARRRFGSPVRLEIADDMTESMLELLLRELDVHPGDVIEVPGLLDLSSLWQIYAVDRPTLKDRTFVPATHPAFAERETPKSIFATLREGDVLVHHPYDSFSTSVQRFIEQAAADPNVLAIKQTLYRTSGDSPIVRALIDAAEAGKQVVALVEIKARFDEQANIAWARALEQAGVHVAYGLVGLKTHCKTALVVRREGPTIRRYCHVGTGNYNSKTARLYEDVGLLTAAPDIGADLTDLFNSLTGYSRKLSYRNLLVAPHGIRAGIIDRVEREVAAHRAEGAHNGKGRIRLKMNALVDEQVIDALYRASRAGVRIEVVVRGICALRPGAQGISENIIVRSILGRFLEHSRILHFRAIDEFWIGSADMMHRNLDRRVEVMAQVKNPRLTAQLDELFESALDPCTRCWELGPDGQWTASPQEGHSVRDHQESLMERHRSEGHHHHHH”, the “soluble on expression in E. coli” value was “soluble”.
Take “MVCISRFLPVKGVQNINGKELKSIVGKKGKYFIDVRTVGEYRGNHMKGFQNIPLNDLASKANQLDKNKEVIVICQSGMRSKQAAKVLKKLGFQQVINVSGGMNSL”: the “soluble on expression in E. coli” value was “not soluble”.
Turning to “RIETDERDSTNRASFKCPVCSSTFTDLEANQLFDPMTGTFRCTFCHTEVEEDESAMPKKDAR”, the “soluble on expression in E. coli” value is on record as “soluble”.
In the case of “STLQPRCEDVETAEGVALTVTGVAQVKIMTEKELLAVACEQFLGKNVQDIKNVVLQTLEGHLRSILGTLTVEQIYQDRDQFAKLVREVAAPDVGRMGIEILSFTIKDVYDKVDYLSSLGKTQTAVVQRDADIGVAEAERDAGIREAECKKEMLDVKFMADTKIADSKRAFELQKSAFSEEVNIKTAEAQLAYELQGAREQQKIRQEEIEIEVVQRKKQIAVEAQEILRTDKELIATVRRPAEAEAHRIQQIAEGEKVKQVLLAQAEAEKIRKIGEAEAAVIEAMGKAEAERMKLKAEAYQKYGDAAKMALVLEALPQIAAKIAAPLTKVDEIVVLSGDNSKVTSEVNRLLAELPASVHALTGVDLSKIPLIKKATGVQV”, the “soluble on expression in E. coli” value was “not soluble”.
With “LSPPRGLVAVRTPRGVLLHWDPPELVPKRLDGYVLEGRQGSQGWEVLDPAVAGTETELLVPGLIKDVLYEFRLVAFAGSFVSDPSNTANVSTSGL”, the “soluble on expression in E. coli” value is reported as “soluble”.
With “MGSDKIHHHHHHMPDNPTIATLPDSQGHNHRADVQLNQLQCDSTKPNDIRPNAIMPSAIEPNAIKHESVVAEQKQKVIFIGLPRTGTTSVSVALLEQGLKVAHMAFTKAAFMQADAISDAPCFSDFKQLDKLFPDAKFVYIERELDSWVPSMQMLLSRMLPHLDAKSGRFHPIMKRSFRHSFGVGVVENPQDEQHLIDCYQRHKTEVVNYFAGRHDLLCIDVSQQGALGQLLAFMGLAATENQQNFPKLNVGRNVASWDEYKHPNKISANASGPDKRKFFDYKI”, the “soluble on expression in E. coli” value is reported as “not soluble”.
The entry for “MSLSKQETEKVRVFALGGVGEIGKNMYGIEVDEDIIVIDAGLMFPDDDMLGVDIVIPDVSYLVENEERVRGIILTHGHEDHIGGLSYVLKKINVPVYATKLTLGLVEEKLKEAGIHRHAELRLIDSNSRIKLGNTPVSFFRVSHSIPDCVGVCVETSQGAIVHTGDFKFDQTPVDGKHADIGKMAAIGQKGVLCLMSDSTNAERPGTTKSEAEAGKGIKDVFARTKGRLIVTSFASNVHRIQQVIQAASATNRKLAVVGKSMVRVISIAGKLGYLKIPKDLLIDMDEVNKHKPEKVAILTTGSQGEPMSALTRMAKGAHRHITITPNDTVIIAATAIPGNETSVSAVIDQLYRIGAEVIYGSQAVHASGHGSQEELKLMLNLMRPKFFLPIHGEIRMQHAHQQLALQVGIKKERIYIVEKGEVIEFTKQQARRGPKVPSGHVLIDGLGVGDVGNIVLRDRRLLSKDGILVVVVTLNKKTNTIVSGPNIISRGFVYVRESEELLEKSNELVTSILQKCVTENVNEWSSLKSNIREGLSRYLFEKTKRRPMILPIIMEEGHHHHHH” is “soluble”; for “MGSDKIHHHHHHMTNEQDPKQNHLLSVLPEAEWARISPHLVRIDMPLGQVIYESGDRLHHVYFPTTSIVSLLYVMEDGSSAEIAIVGNEGLIGIALFMGGETTPNRAIVQSAGEAYRLDARILKQEFHRAGPVQRLLLRYTQALITQMAQTAVCNRHHSIDQQLCRWLLLSLDRLPSNELRMTQELIANMLGVRRSGVTEAALKLQDAGLIRYSHGHIEVLDRPGLEKRVCECYNVVKQEFDRLLPDLKAL” it is “not soluble”.
“MGSDKIHHHHHHMPGWAGYYLEFHGNAYSAPFSADIYINVAYPYDGKLVELGGSILGHNQYFYVKSPYTFPDNVHNVDGYVVEWFDEDWQKWVLWHVSYKPALQVIGCPYVSTWNGIEYVPENTVLVESEILKPRKHMDLTDYYLINNSHTIRENIYSIQLQEFEQDTSYIDSIELLVVDYPQGLELSLDPQGNIVLYIPIHTRLNTRFTTEIASSNVNRLKTDLVIVSPYVKTSYSFKVNKVYENKSVESIHLYPRMFPYRYALFTDKDISKLKMELNDHKLYSIEYGIPVNASYHIVKEKPLLATSDIGGEITEELLEDDGHYAVLTPGDNITLNFKVPPALSSRMKRALILVIKGFYVQKPPTLTKDAVRVIYVPEINGYLFVPLLETYDEILSIMWDFGDGTTSDFFVPFHVYKQGKYKGSLKVKYLNGKTLTIPFYWGG”: the “soluble on expression in E. coli” value is given as “not soluble”.

These data come from the DeepSol protein solubility set.
